The assay concerns the target T1, 4F2hc (CD98hc, SLC3A2), isoform b (human, UniProt P08195-5 1-631).
T1 construct: Purified as a complex with m1 (LAT1); also called heavy chain; source: HEK293F, coexpressed with LAT1, purified (anti-FLAG resin, nickel-NTA, size-exclusion chromatography in GDN)
T1 sequence (looked up): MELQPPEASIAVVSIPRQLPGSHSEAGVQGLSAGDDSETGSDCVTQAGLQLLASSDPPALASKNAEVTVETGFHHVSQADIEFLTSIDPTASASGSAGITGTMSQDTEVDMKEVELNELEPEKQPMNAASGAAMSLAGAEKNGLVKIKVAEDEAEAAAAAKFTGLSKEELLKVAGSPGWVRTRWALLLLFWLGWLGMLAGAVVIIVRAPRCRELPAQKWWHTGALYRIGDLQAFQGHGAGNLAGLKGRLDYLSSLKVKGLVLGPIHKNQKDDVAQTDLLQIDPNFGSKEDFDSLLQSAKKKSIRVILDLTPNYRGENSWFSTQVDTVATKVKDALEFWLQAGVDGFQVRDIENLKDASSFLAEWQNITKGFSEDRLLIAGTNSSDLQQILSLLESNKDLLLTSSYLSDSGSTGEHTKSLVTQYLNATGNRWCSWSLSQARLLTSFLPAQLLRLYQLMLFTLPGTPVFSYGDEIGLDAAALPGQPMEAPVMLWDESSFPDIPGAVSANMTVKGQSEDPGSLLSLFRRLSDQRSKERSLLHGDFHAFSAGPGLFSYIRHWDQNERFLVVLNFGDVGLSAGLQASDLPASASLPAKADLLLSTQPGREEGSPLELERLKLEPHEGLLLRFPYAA
Nature of the assay: cryo-EM structure; LAT1-4F2hc coexpressed and purified as a complex in 25 mM Hepes pH 7.5, 150 mM NaCl, 0.01% GDN; incubated with 10 mM Leu, 1 mM Trp, 1 mM L-DOPA or 1 mM Tyr for 2 h; four structures. As to conditions: both partners purified.

B1: L-type amino acid transporter 1 (LAT1, SLC7A5) (natural protein)
chain: not shown
notes: LAT1 (SLC7A5), human, full-length cDNA NM_003486.7 in pCAG vector; Purified as a complex with m2 (4F2hc); also called light chain; source: HEK293F, coexpressed with 4F2hc, purified (anti-FLAG resin, nickel-NTA, size-exclusion chromatography in GDN)
Consider B1, for which the binding result is given as “binds”.

The values are drawn from publication PMC12444478, “Structural insights into the substrate transport mechanism of the amino acid transporter complex” (The Journal of Biological Chemistry, 2025).
